In the Human Domainome abundance scans (Beltran et al. 2025) one finds abundance fitness data, which are given here for 167 variants.

± gives the uncertainty stated by the source.

B1: Membrane-associated guanylate kinase, WW and PDZ domain-containing protein 2, residues 601 to 682; numbered along this chain, Q86UL8 (parent)
chain: AELMTLTIVKGAQGFGFTIADSPTGQRVKQILDIQGCPGLCEGDLIVEINQQNVQNLSHTEVVDILKDCPIGSETSLIIHRG

In the data set the parent is B1. Description: abundance fitness (aPCA) (normalised: wild type 0, dead -1); higher = more abundant; growth selection in yeast, the domain comes from the species named. The settings on record: Homo sapiens.
Consider F17A, for which the abundance fitness is -0.697 ± 0.05.

For F17K, the abundance fitness is -0.978 ± 0.13.

For G82W, the abundance fitness was -0.184 ± 0.15.

Turning to G82D, the abundance fitness amounted to 0.009 ± 0.11.

With G82S, the abundance fitness is -0.09 ± 0.076.

For G82R, the abundance fitness was -0.016 ± 0.082.

Turning to L40F, the abundance fitness was 0.047 ± 0.25.

With L40M, the abundance fitness was -0.254 ± 0.17.

For the variant E2P, the abundance fitness is -0.205 ± 0.043.

For the variant E2Q, the abundance fitness is -0.066 ± 0.042.

For E2C, the abundance fitness is -0.039 ± 0.054.

With E2N, the abundance fitness stood at 0.009 ± 0.063.

Regarding E2H, the abundance fitness is -0.113 ± 0.053.

Consider Q35V, for which the abundance fitness is -0.064 ± 0.17.

Q35P: the abundance fitness was -0.243 ± 0.16.

On to Q35S, for which the abundance fitness was -0.005 ± 0.13.

In the case of Q35G, the abundance fitness worked out at 0.052 ± 0.11.

Take Q35L: the abundance fitness is -0.115 ± 0.094.

On to Q30C, for which the abundance fitness was -0.205 ± 0.16.

For the variant Q30T, the abundance fitness is -0.117 ± 0.19.

Q30S: the abundance fitness was -0.076 ± 0.098.

On to Q30K, for which the abundance fitness was determined as 0.363 ± 0.34.

On to I71R, for which the abundance fitness is -0.082 ± 0.076.

I71K: the abundance fitness was -0.117 ± 0.24.

With I71C, the abundance fitness was -0.101 ± 0.23.

For the variant I71Q, the abundance fitness is -0.161 ± 0.096.

As for I71L, the abundance fitness was -0.099 ± 0.1.

On to I71D, for which the abundance fitness was -0.101 ± 0.17.

For the variant I71V, the abundance fitness came to 0.006 ± 0.089.

Consider I71A, for which the abundance fitness was -0.165 ± 0.1.

On to L77F, for which the abundance fitness was -0.05 ± 0.38.

On to T24W, for which the abundance fitness was -0.076 ± 0.06.

For the variant T24Q, the abundance fitness was -0.035 ± 0.044.

With T24M, the abundance fitness is -0.031 ± 0.057.

For the variant T24A, the abundance fitness is -0.013 ± 0.037.

Turning to T24V, the abundance fitness is -0.08 ± 0.04.

Take S76L: the abundance fitness was -0.061 ± 0.077.

Take S76M: the abundance fitness is -0.003 ± 0.11.

In the case of G25W, the abundance fitness was -0.531 ± 0.069.

As to G25P, the abundance fitness is -0.371 ± 0.075.

As for G25S, the abundance fitness is -0.185 ± 0.051.

On to D64S, for which the abundance fitness turned out to be 0.013 ± 0.085.

With D64A, the abundance fitness is -0.191 ± 0.09.

For D64M, the abundance fitness is -0.308 ± 0.14.

For Q51H, the abundance fitness was -0.016 ± 0.041.

For Q51S, the abundance fitness is -0.018 ± 0.038.

Q51V: the abundance fitness is -0.088 ± 0.042.

Take Q51P: the abundance fitness was -0.749 ± 0.07.

Regarding Q51W, the abundance fitness is -0.09 ± 0.055.

With Q51F, the abundance fitness was -0.063 ± 0.041.

Q51N: the abundance fitness is 0.045 ± 0.044.

As to C41G, the abundance fitness is -0.046 ± 0.03.

For C41S, the abundance fitness came out at 0.027 ± 0.038.

With C41W, the abundance fitness is -0.058 ± 0.039.

C41R: the abundance fitness is -0.022 ± 0.029.

For the variant C41N, the abundance fitness was -0.012 ± 0.081.

With C41D, the abundance fitness was found to be 0.036 ± 0.066.

Turning to S73G, the abundance fitness amounted to 0.095 ± 0.081.

As to S73P, the abundance fitness was -0.048 ± 0.1.

With S73N, the abundance fitness is -0.359 ± 0.33.

Consider D33N, for which the abundance fitness is -0.043 ± 0.082.

With D33E, the abundance fitness was -0.089 ± 0.054.

As to D33Q, the abundance fitness is 0.024 ± 0.076.

As to H59I, the abundance fitness is -0.142 ± 0.16.

H59A: the abundance fitness is -0.088 ± 0.077.

Take H59E: the abundance fitness worked out at 0.126 ± 0.15.

As for H59S, the abundance fitness was -0.038 ± 0.083.

H59W: the abundance fitness was -0.074 ± 0.1.

As to H59T, the abundance fitness is -0.132 ± 0.1.

K29G: the abundance fitness was -0.004 ± 0.087.

With K29E, the abundance fitness was 0.084 ± 0.15.

For K29L, the abundance fitness is -0.212 ± 0.099.

Take I49M: the abundance fitness was -0.195 ± 0.13.

For I49Y, the abundance fitness was -0.14 ± 0.28.

For I19E, the abundance fitness was -0.872 ± 0.4.

On to Q26Y, for which the abundance fitness turned out to be 0.316 ± 0.4.

Q26T: the abundance fitness was -0.007 ± 0.055.

For the variant Q26S, the abundance fitness is -0.071 ± 0.05.

With Q26D, the abundance fitness is -0.176 ± 0.13.

Take F15G: the abundance fitness was -0.221 ± 0.036.

Turning to F15K, the abundance fitness was -0.322 ± 0.044.

Turning to F15W, the abundance fitness was -0.002 ± 0.039.

Turning to F15C, the abundance fitness is -0.111 ± 0.042.

In the case of T18F, the abundance fitness is -0.149 ± 0.088.

In the case of T18Y, the abundance fitness is -0.032 ± 0.093.

Regarding T18G, the abundance fitness is -0.068 ± 0.032.

Regarding T18M, the abundance fitness was -0.061 ± 0.052.

Consider T5I, for which the abundance fitness is -0.169 ± 0.12.

T5Q: the abundance fitness was -0.088 ± 0.05.

Regarding T5W, the abundance fitness was -0.208 ± 0.051.

Regarding T5L, the abundance fitness is -0.101 ± 0.039.

Regarding E48H, the abundance fitness stood at 0.091 ± 0.43.

As for E48C, the abundance fitness was -0.145 ± 0.1.

As to E48D, the abundance fitness is -0.444 ± 0.23.

With E48I, the abundance fitness was -0.871 ± 0.47.

On to E48L, for which the abundance fitness is -0.114 ± 0.079.

With E48R, the abundance fitness is -0.103 ± 0.056.

Consider E48W, for which the abundance fitness was -0.158 ± 0.12.

Take E48A: the abundance fitness was -0.193 ± 0.094.

Consider L57V, for which the abundance fitness is -0.029 ± 0.067.

Regarding L57W, the abundance fitness was -0.13 ± 0.11.

V62A: the abundance fitness was -0.079 ± 0.089.

In the case of V62T, the abundance fitness was -0.03 ± 0.13.

On to V62E, for which the abundance fitness was -0.999 ± 0.49.

As for A20V, the abundance fitness was -0.11 ± 0.085.

For the variant A20S, the abundance fitness is 0.003 ± 0.1.

A20K: the abundance fitness is -0.026 ± 0.18.

A20G: the abundance fitness was -0.069 ± 0.1.

With R27H, the abundance fitness is -0.089 ± 0.21.

As to R27G, the abundance fitness is -0.107 ± 0.1.

Consider R27V, for which the abundance fitness is 0.047 ± 0.12.

Regarding R81A, the abundance fitness was -0.098 ± 0.079.

Turning to R81P, the abundance fitness came to 0.039 ± 0.083.

As to V28L, the abundance fitness was -0.215 ± 0.095.

Consider G16S, for which the abundance fitness was -0.027 ± 0.035.

For the variant G16D, the abundance fitness is 0.071 ± 0.049.

Take G16A: the abundance fitness was -0.144 ± 0.038.

On to G16P, for which the abundance fitness is -0.006 ± 0.043.

As for Q55D, the abundance fitness was -0.111 ± 0.16.

Q55G: the abundance fitness was 0.073 ± 0.059.

Q55N: the abundance fitness was 0.039 ± 0.32.

For Q55L, the abundance fitness was -0.106 ± 0.072.

With Q55V, the abundance fitness was -0.027 ± 0.09.

Consider Q55A, for which the abundance fitness was -0.069 ± 0.095.

On to Q55C, for which the abundance fitness is -0.111 ± 0.14.

Take H80N: the abundance fitness worked out at 0.124 ± 0.19.

As for H80A, the abundance fitness is -0.049 ± 0.077.

In the case of H80V, the abundance fitness is -0.231 ± 0.098.

Take H80D: the abundance fitness was determined as 0.043 ± 0.14.

H80M: the abundance fitness was -0.23 ± 0.27.

As for H80R, the abundance fitness worked out at 0.027 ± 0.063.

Take L45A: the abundance fitness is -0.088 ± 0.43.

As for L45V, the abundance fitness was -0.232 ± 0.12.

In the case of L45G, the abundance fitness is -0.096 ± 0.34.

Take I31L: the abundance fitness is 0.011 ± 0.083.

Consider I31M, for which the abundance fitness is -0.084 ± 0.12.

Take I31G: the abundance fitness was -0.11 ± 0.084.

On to I31P, for which the abundance fitness is -0.181 ± 0.28.

I31N: the abundance fitness was -0.219 ± 0.21.

As to I46V, the abundance fitness was -0.079 ± 0.18.

Turning to I46L, the abundance fitness turned out to be 0.236 ± 0.32.

For the variant N50M, the abundance fitness was -0.108 ± 0.1.

Turning to N50D, the abundance fitness is -0.084 ± 0.23.

Turning to N50C, the abundance fitness was -0.71 ± 0.43.

For the variant N50L, the abundance fitness is -0.219 ± 0.1.

As for N50G, the abundance fitness is -0.058 ± 0.064.

For the variant N50H, the abundance fitness is 0.024 ± 0.13.

As for G39A, the abundance fitness is -0.052 ± 0.1.

For G39P, the abundance fitness is -0.083 ± 0.13.

As to G39K, the abundance fitness is -0.192 ± 0.2.

Take L3W: the abundance fitness was -0.162 ± 0.035.

Consider L3V, for which the abundance fitness is -0.032 ± 0.031.

For C37D, the abundance fitness is -0.052 ± 0.1.

For the variant C37G, the abundance fitness is -0.28 ± 0.097.

In the case of C37M, the abundance fitness is -0.16 ± 0.15.

On to T60V, for which the abundance fitness was 0.004 ± 0.086.

Turning to T60W, the abundance fitness was -0.075 ± 0.12.

For T60K, the abundance fitness was -0.003 ± 0.15.

As for S58K, the abundance fitness is -0.236 ± 0.17.

With A12E, the abundance fitness was -0.047 ± 0.041.

Regarding A12N, the abundance fitness was -0.077 ± 0.07.

For A12K, the abundance fitness was -0.036 ± 0.059.

Take A12G: the abundance fitness came out at 0.01 ± 0.032.

As for A12L, the abundance fitness is -0.05 ± 0.039.

For A12Y, the abundance fitness was -0.119 ± 0.061.

In the case of G72F, the abundance fitness is -0.353 ± 0.16.

As for G72A, the abundance fitness worked out at 0.002 ± 0.061.
